# Assay: soluble on expression in E. coli; label from the status in PepcDB or PDB records
row,Sequence,soluble on expression in E. coli
1,MKYKKLLFDLIDYLDAFESLHDGGSHEPEIKDFADFLSWRCGKKKKQEEEVVSVTRERAAGAKNIARGVSLLHRYSRFYIKKALTESPLQTEDEYTYLVSLMNGESMTKTELNNLNAMEKTSGAEVMRRLLKANLIEQRPDEEDRRSMRVSITPEGRKVLVNLFPNLRLCAETLVSALSDEQLTAFDHLLWLLCECHNEMFTGKHDAELTDLHAETCGLKQSAGGALSKRLYRR,not soluble
2,MSSRKKVRVLLLKNKTVPIDKYELECRSKAFEPIFVPLIKHTHVIQDFRNVLNTIPNYLNTINYIIITSQRTVESLNEAIIPTLTSEQKAALLSKTVYTVGPATANFIRRSGFINVKGGEDAGNGSILADIIIDDLSTDIKACPPSELLFLVGEIRRDIIPKKLHSKGIKVREVVTYKTEELSDGFKRFIHAMKECDEDEVFSDWVVVFSPQGTKEITQYLGDSNRLPGSHLRVASIGPTTKKYLDDNDVTSDVVSPKPDPKSLLDAIELYQRHK,soluble
3,MAMSRQCTHYGRWPQHGFTSLKKLTPQSVTSRIQPGTDVIVCAEMDEHWGYFCAKKRQRWLVDTYDKIRRTDVDHVFGERTLATLERLLSLLSAFEVAVWMTDGWPLYESRLKGKLHVISKRYTQRIERHNLNLRQHLARLVRKSLSFSKSVELHSGIILEHHHHHH,not soluble
4,MGSDKIHHHHHHMRFPMMELDEKIYRFFENRGRDVTVEYLNLGLGYTAVTTSDGGIGIAYTCFGAKESCSFMNSYYDFEGRPAVELLEKIKSTHPLERTMALALVNALNYEYALSLPEDKENRALFESFGIGEKTRVAMVGYFAPIAGMLGKMGALLEVIDISKKIGHQADFYDRLENWAQVAFITSTSILNSTTEDILRHAGKGVKTVMLGPSTPMIGEVFSHLPVHMLAGTVPLEKEKVLKAIRHGFGTREIQRFSRKSYLALF,not soluble
5,MICDNCKTREAVILQPHTGRKLCKECFIEDIRKRVEMEARKQEIVNSNKILLAVSGGKDSLVLADTLSQFIHPSRLIAFNINEGIKGYNRNEYVKKLEEYLKDLGIELIKSGFKEEVGFSLDEMLEASLKKKLNVSACTFCGGFRRKLINEAGIKVAADYVATGHNLDDEVQTIVINLIRGDLLRLIRFGDKPLMVSSKFVMRVKPLRKIYEWETTMYAHLKGFEFQETECPYISQKPTLRAKVRDLLYKLEEKKPGTLLRILEQFDEISEKIKKEYRLTNELPNCVICGEPTTPGRMICKNCELLIRSGLMPQEYQKYLPIS,not soluble
6,MPLIAGIDIGNATTEVALASDYPQARAFVASGIVATTGMKGTRDNIAGTLAALEQALAKTPWSMSDVSRIYLNEAAPVIGDVAMETITETIITESTMIGHNPQTPGGVGVGVGTTIALGRLATLPAAQYAEGWIVLIDDAVDFLDAVWWLNEALDRGINVVAAILKKDDGVLVNNRLRKTLPVVDEVTLLEQVPEGVMAAVEVAAPGQVVRILSNPYGIATFFGLSPEETQAIVPIARALIGNRSAVVLKTPQGDVQSRVIPAGNLYISGEKRRGEADVAEGAEAIMQAMSACAPVRDIRGEPGTHAGGMLERVRKVMASLTGHEMSAIYIQDLLAVDTFIPRKVQGGMAGECAMENAVGMAAMVKADRLQMQVIARELSARLQTEVVVGGVEANMAIAGALTTPGCAAPLAILDLGAGSTDAAIVNAEGQITAVHLAGAGNMVSLLIKTELGLEDLSLAEAIKKYPLAKVESLFSIRHENGAVEFFREALSPAVFAKVVYIKEGELVPIDNASPLEKIRLVRRQAKEKVFVTNCLRALRQVSPGGSIRDIAFVVLVGGSSLDFEIPQLITEALSHYGVVAGQGNIRGTEGPRNAVATGLLLAGQAN,soluble
7,MAHHHHHHMRRVRLSPPLLRFPGSLFPKKNLFSKAIPLAIQTCRLFVSYSEPSYYYYYYYHNSCMCEVIRSARDSAERMGFGEGWGVCGASTRRQHRVGLFSSGSSSEHLPCMKGWSGRKDVSLIYAYHTCLLHFLLLHTCV,not soluble
8,MKKSSILILIIICLVGCKKGSNETTITGEIKGLGTDTLYLYGMDELYDRIDTIYVENDKFSYTTSVDTITSAYLLLKNRIEYPVFLDKGNKIKIKGDTINLNFLTISGNIYNEEFTDFQKALEDPADPSEKAGEETVDKRITVEKANTAEEMAEEFILQHHSSYVSLYLLDKYFVQKETPDFSKIKKLVEVMTGVLQDKPYIERLNETITQAEKSEIGKYAPFFSLPNAKGEKITRSSDAFKQKSLLINFWASWNDSISQKQSNSELREIYKKYKKNKYIGMLGISLDVDKQQWKDAIKRDTLDWEQVCDFGGLNSEVAKQYSIYKIPANILLSSDGKILAKNLRGEELKKKIENIVEEATEKEKKNKQKK,not soluble
9,MSLETWYDFDLPLDRTDPITIIHFNDVYNIESRCDGTGGVSRFVTALQSFQHKHPLILFSGDVLNPSVMSTYTRGRHMVPFLNLLKIHTACFGNHDFDFGIDELEYAVGSCSFPWLISNVFEKTGQTGLPLANGMKYRLFEWQGIRVGIIGLVEKEWLDTLACIDKDDVVYVDFVEAANCLCRILRQKECELIIALTHMRAPNDERLAKEAEDIDLILGGHDHDYYGLQRIGNIPVVKSGTDFRDFTVITIHPGQGSRLDASSLPTPPTQNKFGSTTFVSEEAARREAAVTAEMFKGPLLPTTVEGGEEVMPFFLGGSIVEWSRVRVDPERFEKNKHVELLVKKYEQNLKKQMKQILVDAACDLETRFSVIRTSESNVGNWLCDLMRRECRADIAILNSGTIRSDCLFPPGPFRFGDLAAMLPMTDTLCVIAVHGNVLLQALENAVSQLPKTEGRFLQVAGIRFAFNSSKPVGQRVVRDSVKVAQDACGRVHSGAATPVGEGKKSESDYLPLDENRVYSVATKTYLAQGRDGFHMLSKCPVLVEDELLPPLPTMVRSALSMAEMANGIKRPHSRITFKRLTEGHHHHHH,not soluble
10,MGSDKIHHHHHHMNIRLYSDLHIEFEDFHAPADGADVVVLAGDVDVGVRGIDWIVRQEFSCPVIYVMGNHEYYNHRYPSLLGKVKQHAAGKNIHILENESVEIDGVRFHGATLWADFKLFGDPRVAGYECQQVMRDYKKIRKEPSYSKLRSIDVASIHNQSLSWLAESLASSKSSVNVVVTHHAPSMLSVPAYYQDNLVTAAYASDLSAFIDEHKPDYWLHGHLHTSSNYYLGACQVLANPKGYKGEVNESFDPSFSLTLAKRGV,not soluble
11,MSLVTQQALPPVVSSAASPSPQASAPLPTDKTAIAIVLQGFGYSDALTYDVLSRIPAPVAVGISPYVSNISDIIARAHASHREVYVTLPMQSAHPERVDEGPHALGYGNSAADDQRELEWCLSRAAGAEGLTDASENGDDQPGGGYATSPDFSPIASAISSKGLLYLAGSAQDGRRTRGMTATAWIDGDTDAATLDSRLAALLPQDGKPAKILLMVGPITPVMIDRLANWLKGPAAQNFVVVPPSAFADSGISNDQAANLSPSNPVAPLEGHHHHHH,soluble
12,MALVNEHFLKLPGSYLFSDIAKKVNTFKITHPKQDIIRLGIGDVTQPLPKACIEAMHKAVEELASKDTFRGYGPEQGYDFLIEAIIKNDFAPRGIHFSPSEIFVNDGAKSDTGNIGDILRHDNSVGVTDPIYPVYIDSNVMCGRAGVLEEGTGKWSNVTYMPCTSENDFIPEIPDKRIDIVYLCYPNNPTGTTLTKPELKKWVDYALANDTLILFDAAYEAYIQDADVPHSIYEIKGAKKCAIEFRSFSKTAGFTGVRCGYTVVPKELTAATLEGDRIPLNKLWNRRQCTKFNGTSYITQRAAEAVYSTEGKAQIKETINYYMSNAKIMKEGLEATGLKVYGGVNAPYLWVKTPNGLSSWRFFEQMLYEANVVGTPGVGFGPSGEGYIRLTAFGDHNDCMEAMRRIKNWL,not soluble
13,MELTIMSQLIDRRQNAGKKSTVNRQRFLRRYKSQIKKAVSEAVGKRSITEIDQGEQITIPAKDIYEPQFHRGHGGHIERVLPGNDNFIAGDRIKRPGGGGAGGAGGNASDSGEGEDNFVFELSREEFLELYFEDLELPDLVKKELARISTYKTVRAGVTTSGIPNNINVLRSMKQATGRRVALASPYKKRLKEAEEELERLKQLANPDKIDLLKLERDIEFFKKKIQTVPFIDTIDLRYNHRVRVPSPSTQAVMFCVMDVSGSMDEAKKDIAKRFFILLYMFLTKNYEKIELVFIRHHTSAKEVNEEEFFYSRETGGTVVSSALELLNTIIEARYPPQAWNIYVAQASDGDNWNADSPYCQELLQEKIMPLLQYFAYIEIMPRHHQSLWEVYQQVKERYPNFAMENIDNVADIYPVFRELFKRKTVAAALEHHHHHH,not soluble
